Here are results for one molecule from patent US20200040069A1 (INDIANA UNIVERSITY RESEARCH AND TECHNOLOGY, published 2020).

The assay concerns the target T1, rat antibody hybridoma clone M7/1 (EMAP II neutralizing M7/1 antibody).
T1 construct: Rat monoclonal IgG from a hybridoma; also called rat monoclonal neutralizing antibody M7
As to the kind of experiment: description in the sequence table.

T1 sequence (VH, as listed by the source, chain 1 of 2): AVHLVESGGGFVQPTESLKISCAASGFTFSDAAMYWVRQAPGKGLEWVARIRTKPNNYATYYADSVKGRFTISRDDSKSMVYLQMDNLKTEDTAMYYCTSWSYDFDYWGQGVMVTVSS
T1 sequence (VL, as listed by the source, chain 2 of 2): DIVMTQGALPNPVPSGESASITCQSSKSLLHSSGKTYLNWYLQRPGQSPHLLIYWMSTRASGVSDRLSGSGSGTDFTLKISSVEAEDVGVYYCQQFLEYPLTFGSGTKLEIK

B1: Peptide 2 (QQSIAGSADSKPIDVSR) (peptide)
peptide: QQSIAGSADSKPIDVSR
notes: Synthetic peptide from human EMAP II; also called ID NO; 12
As for B1, the binding result is on record as “binds”.
